Two substances from paper PMC7015811 can be followed below.

In general, stoichiometry N refers to a count of units in the complex or per binding partner.

The target of test [1] is chCALHM1 hCALHM2 chimera (chicken | human) (UniProt Q9HA72). Nature of the test: cryo-EM structure.
Test [2] deals with chicken CALHM1 (chicken). Nature of the test: cryo-EM structure.

Substance “chCALHM1 hCALHM2 chimera (from UniProt Q9HA72 205-323)” displayed a stoichiometry N in test [1] of 11. As to chicken CALHM1 (natural protein), in test [2], the stoichiometry N came to 8.
